Positions count from the first letter of the chain named.

Assay [1] deals with T1, human FcγRIIb expressed on the cell surface (human, UniProt P31994 43-310).
T1 sequence (looked up): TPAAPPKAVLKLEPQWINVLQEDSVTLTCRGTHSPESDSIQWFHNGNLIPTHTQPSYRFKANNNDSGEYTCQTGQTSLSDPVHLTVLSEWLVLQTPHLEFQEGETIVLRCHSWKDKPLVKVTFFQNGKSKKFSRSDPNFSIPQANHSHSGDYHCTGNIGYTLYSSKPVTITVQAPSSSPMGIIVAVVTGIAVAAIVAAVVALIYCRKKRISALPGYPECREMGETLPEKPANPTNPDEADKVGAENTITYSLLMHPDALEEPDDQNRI
Nature of the assay: cell-based or functional assay.

The target in assay [2] is T2, recombinant soluble FcγRIIb (human, UniProt P31994 43-217).
T2 construct: extracellular domain; also called rsFcγRIIb
T2 sequence (looked up): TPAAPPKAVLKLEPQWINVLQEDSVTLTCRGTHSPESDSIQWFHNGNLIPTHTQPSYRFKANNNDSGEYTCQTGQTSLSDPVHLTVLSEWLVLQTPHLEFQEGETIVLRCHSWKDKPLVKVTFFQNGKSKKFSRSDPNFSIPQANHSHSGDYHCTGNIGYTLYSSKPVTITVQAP
As to the kind of experiment: BLI (Octet); anti-TNP IgG captured on TNP-BSA-biotin, rsFcγR in solution; global 1:1 Langmuir fit. As to the method: (§1) Affinity measurements of IgG:FcR interaction using Bio-Layer Interferometry (OCTET) TNP-BSA was reacted with the EZ-Link™ biotinylation reagent (ThermoFisher Scientific) according to the manufacturer's instructions. The resulting TNP-BSA-biotin (5 μg/ml, 30 sec) was captured to ˜0.8 nm on streptavidin BLI probes using an Octet Red96 (ForteBio; Molecular Devices LLC, San Jose, CA, United States of America) then loaded with anti-TNP IgG (4 μg/ml, 75 sec). A baseline was established (60 sec) followed by the association and dissociation (90s) of a concentration series (15 nM to 20 μM) of rsFcγRIIa-R131 or rsFcγRIIb. Regeneration after each initial reaction TNP-BSA-biotin capture and the subsequent binding cycles used 10 mM HCl.

In assay [3] the target is T3, human FcγRIIIa-F158 expressed on the cell surface (human, UniProt P08637 17-254).
T3 construct: whole, on cells; Co-expressed with the FcR common γ chain (FcRγ-EGFP)
T3 sequence (P08637 17-254): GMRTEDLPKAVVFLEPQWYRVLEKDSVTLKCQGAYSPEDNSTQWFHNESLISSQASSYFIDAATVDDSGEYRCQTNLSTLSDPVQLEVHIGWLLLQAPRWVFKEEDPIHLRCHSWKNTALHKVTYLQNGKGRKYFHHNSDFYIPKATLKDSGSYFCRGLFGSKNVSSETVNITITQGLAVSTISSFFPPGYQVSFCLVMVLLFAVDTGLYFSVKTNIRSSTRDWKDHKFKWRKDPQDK
Nature of the assay: flow cytometry; immune complexes on IIA1.6 cells expressing the FcγR. As to the method:
(§2) Antibody FcγR binding was measured using either immune complexes or monomeric IgG. Immune complexes were generated by incubating the anti-TNP antibodies (parental or mutant anti-TNP IgG) with TNP-BSA at a 2:1 ratio (40 μg/ml:20 μg/ml) for 30 minutes at 37° C. then 10 minutes at 4° C. […] The cells were washed twice, resuspended in […] PBS/0.5% BSA and 10,000 viable cells analysed in at least three experiments. Monomer IgG binding (MFI) were fitted to a single binding site model to determine binding affinity (KA). Similarly immune complex binding is reported as apparent affinity (K app).

Assay [4] deals with T4, human FcγRIIIa-V158 expressed on the cell surface (human, UniProt P08637 17-254).
T4 construct: whole, on cells; Co-expressed with the FcR common γ chain (FcRγ-EGFP)
T4 sequence (P08637 17-254 F176V): as the sequence (P08637 17-254) above, with F160V counted along it
The assay is described as above. As to the method:
as §2

In assay [5] the target is T1, human FcγRIIb expressed on the cell …. Nature of the assay: flow cytometry; monomeric IgG on IIA1.6 cells expressing FcγRIIb, single site fit of MFI. The method, then: as §2
In an attempt to further improve FcγRIIb specificity, two residues in CH2 of the Fc domain were additionally modified (see Table 1). Particularly, two mutations S267E and L328F (SELF) which have been used in the IgG1 backbone (Chu S Y et al., Mol Immunol 45(15):3926-3933, 2008) were introduced into the IgG2- and IgG4-based mAbs, IgG2-FLGG, IgG2-FEGG and IgG4-FEGG, as well as the parental IgG4 antibody. The antibodies were then tested for specificity (see FIGS. 4-6) and inhibitory potency in allergen specific (FIG. 3) and anti-IgE BAT (FIG. 7). Several effects were apparent.
On the technique in general: In flow cytometry, cells or beads pass a laser one at a time.

Assay [6] deals with T5, recombinant soluble FcγRIIa-Arg131 (human, UniProt P12318 34-217).
T5 construct: extracellular domain; Arg131 allelic form; also called rsFcγRIIa-R131
T5 sequence (looked up): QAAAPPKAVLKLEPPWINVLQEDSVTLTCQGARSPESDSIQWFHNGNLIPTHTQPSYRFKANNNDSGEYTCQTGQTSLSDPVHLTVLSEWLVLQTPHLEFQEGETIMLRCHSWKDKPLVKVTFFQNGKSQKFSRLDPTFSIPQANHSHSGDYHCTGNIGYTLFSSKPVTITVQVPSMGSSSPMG
Nature of the assay: BLI (Octet); anti-TNP IgG captured on TNP-BSA-biotin, rsFcγR in solution; global 1:1 Langmuir fit. The method, then:
as §1
A general note: In BLI a coated tip is dipped into the sample, and binding shifts an interference pattern.

For assay [7], the target named is T6, human FcγRI expressed on the cell surface (human, UniProt P12314 16-374).
T6 construct: whole, on cells; Co-expressed with the FcR common γ chain
T6 sequence (P12314 16-374): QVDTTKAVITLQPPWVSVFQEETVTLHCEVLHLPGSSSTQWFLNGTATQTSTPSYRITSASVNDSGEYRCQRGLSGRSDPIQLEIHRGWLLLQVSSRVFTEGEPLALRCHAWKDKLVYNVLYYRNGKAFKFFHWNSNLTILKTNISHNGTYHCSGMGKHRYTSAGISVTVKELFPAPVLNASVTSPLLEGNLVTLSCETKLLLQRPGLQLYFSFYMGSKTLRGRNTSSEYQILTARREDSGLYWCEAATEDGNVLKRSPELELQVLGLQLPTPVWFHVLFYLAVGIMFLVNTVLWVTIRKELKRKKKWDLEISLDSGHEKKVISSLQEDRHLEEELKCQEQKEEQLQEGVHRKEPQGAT
As to the kind of experiment: flow cytometry; monomeric IgG on IIA1.6 cells expressing FcγRI. The method, then:
as §2

B1: chimeric anti-TNP human IgG2-FLGG (antibody)
heavy: EVQLQESGPSLVKPSQTLSLTCSVTGDSITSGYWNWIRQVPGNKLEYMGFINYSGNTYYNPSLRSRISITRDTSKNQYFLHLNSVTTEDTATYYCARANWDVFAYWGQGTLVTVSAASTKGPSVFPLAPCSRSTSESTAALGCLVKDYFPEPVTVSWNSGALTSGVHTFPAVLQSSGLYSLSSVVTVPSSNFGTQTYTCNVDHKPSNTKVDKTVERKCCVECPPCPAPEFLGGPSVFLFPPKPKDTLMISRTPEVTCVVVDVSHEDPEVQFNWYVDGVEVHNAKTKPREEQFNSTFRVVSVLTVVHQDWLNGKEYKCKVSNKGLPAPIEKTISKTKGQPREPQVYTLPPSREEMTKNQVSLTCLVKGFYPSDIAVEWESNGQPENNYKTTPPMLDSDGSFFLYSKLTVDKSRWQQGNVFSCSVMHEALHNHYTQKSLSLSLGK
light: not shown
notes: The entry includes a leader; the C-terminal LGK may differ
As for B1, in assay [1], the “% inhibition of Api m 1 induced basophil activation (washed blood BAT)” value turned out to be 85% and the “IC50 of inhibition of basophil activation (whole blood BAT)” value (from here on “IC50 of inhibition … (whole blood BAT)”) was 1.6 µg/mL. Moreover, the Ka in assay [2] was found to be 830000 M⁻¹.

B2: Anti-TNP mAb formatted as IgG2-FLGG-SELF mutant (antibody)
heavy: B1 heavy with S263E, L324F
light: not shown
With B2, the “IC50 of inhibition … (whole blood BAT)” value in assay [1] is 0.24 µg/mL. The binding result in assay [3] and in assay [4] was “no binding” each time. The Ka in assay [5] was determined as 8.9e+07 M⁻¹; in assay [2] it was 1.03e+08 M⁻¹; in assay [6] it was 6.3e+08 M⁻¹.

B3: chimeric anti-TNP human IgG2-LLGG (antibody)
heavy: B1 heavy with F230L
light: not shown
notes: The entry includes a leader
Turning to B3, the “% inhibition of Api m 1 induced basophil activation (washed blood BAT)” value in assay [1] was determined as 81%. For the same molecule, the Ka in assay [2] came to 800000 M⁻¹.

B4: Anti-TNP mAb formatted as IgG2-FEGG-SELF mutant (antibody)
heavy: B1 heavy with L231E, S263E, L324F
light: not shown
As for B4, in assay [1], the “IC50 of inhibition … (whole blood BAT)” value was 0.38 µg/mL. Further, the binding result in assay [7] is “no binding”. For the same molecule, the Ka in assay [5] worked out at 3.2e+07 M⁻¹; in assay [2], 2.9e+07 M⁻¹; in assay [6], 1.88e+08 M⁻¹.

B5: chimeric anti-TNP human IgG4-SELF (antibody)
heavy: EVQLQESGPSLVKPSQTLSLTCSVTGDSITSGYWNWIRQVPGNKLEYMGFINYSGNTYYNPSLRSRISITRDTSKNQYFLHLNSVTTEDTATYYCARANWDVFAYWGQGTLVTVSAASTKGPSVFPLAPCSRSTSESTAALGCLVKDYFPEPVTVSWNSGALTSGVHTFPAVLQSSGLYSLSSVVTVPSSSLGTKTYTCNVDHKPSNTKVDKRVESKYGPPCPSCPAPEFLGGPSVFLFPPKPKDTLMISRTPEVTCVVVDVEQEDPEVQFNWYVDGVEVHNAKTKPREEQFNSTYRVVSVLTVLHQDWLNGKEYKCKVSNKGFPSSIEKTISKAKGQPREPQVYTLPPSQEEMTKNQVSLTCLVKGFYPSDIAVEWESNGQPENNYKTTPPVLDSDGSFFLYSRLTVDKSRWQEGNVFSCSVMHEALHNHYTQKSLSLSLGK
light: not shown
B5: the “IC50 of inhibition … (whole blood BAT)” value in assay [1] turned out to be 1.1 µg/mL.

B6: anti-TNP IgG2-SELF (antibody)
heavy: EVQLQESGPSLVKPSQTLSLTCSVTGDSITSGYWNWIRQVPGNKLEYMGFINYSGNTYYNPSLRSRISITRDTSKNQYFLHLNSVTTEDTATYYCARANWDVFAYWGQGTLVTVSAASTKGPSVFPLAPCSRSTSESTAALGCLVKDYFPEPVTVSWNSGALTSGVHTFPAVLQSSGLYSLSSVVTVPSSNFGTQTYTCNVDHKPSNTKVDKTVERKCCVECPPCPAPPVAGPSVFLFPPKPKDTLMISRTPEVTCVVVDVEHEDPEVQFNWYVDGVEVHNAKTKPREEQFNSTFRVVSVLTVVHQDWLNGKEYKCKVSNKGFPAPIEKTISKTKGQPREPQVYTLPPSREEMTKNQVSLTCLVKGFYPSDIAVEWESNGQPENNYKTTPPMLDSDGSFFLYSKLTVDKSRWQQGNVFSCSVMHEALHNHYTQKSLSLSLGK
light: not shown
Regarding B6, the Ka stood at 3.4e+07 M⁻¹ in assay [2] and 9.1e+07 M⁻¹ in assay [6].

Values taken from patent US20240018269A1 (MACFARLANE BURNET INSTITUTE FOR MEDICAL RESEARCH AND PUBLIC …, published 2024).
